Paper PMC2905418, “High-affinity consensus binding of target RNAs by the STAR/GSG proteins GLD-1, STAR-2 and Quaking”

Experiments:
STAR-2-STAR (C. elegans) [1] = experiment: EMSA; details: 10 mM Tris pH 8.0, 25 mM NaCl, 0.1 mM EDTA, 0.1 mg/mL tRNA, 5 ug/mL heparin, 0.01% IGEPAL CA630, room temperature, 3 h; EMSA gel 6% native, 0.5x TBE, 4 C
STAR-2-STAR (C. elegans) [2] = experiment: fluorescence polarization; details: 10 mM Tris pH 8.0, 25 mM NaCl, 0.1 mM EDTA, 0.1 mg/mL tRNA, 5 ug/mL heparin, 0.01% IGEPAL CA630, room temperature, 3 h; EMSA gel 6% native, 0.5x TBE, 4 C
STAR-2-STAR (C. elegans) [3] = experiment: competition FP; details: probe TGE; 10 mM Tris pH 8.0, 25 mM NaCl, 0.1 mM EDTA, 0.1 mg/mL tRNA, 5 ug/mL heparin, 0.01% IGEPAL CA630, room temperature, 3 h; EMSA gel 6% native, 0.5x TBE, 4 C
GLD-1-STAR [4] = biological target: T1, GLD-1-STAR (C. elegans, UniProt Q17339 135-336); experiment: competition FP; details: probe TGE; 10 mM Tris pH 8.0, 25 mM NaCl, 0.1 mM EDTA, 0.1 mg/mL tRNA, 5 ug/mL heparin, 0.01% IGEPAL CA630, room temperature, 3 h; EMSA gel 6% native, 0.5x TBE, 4 C
T1 sequence: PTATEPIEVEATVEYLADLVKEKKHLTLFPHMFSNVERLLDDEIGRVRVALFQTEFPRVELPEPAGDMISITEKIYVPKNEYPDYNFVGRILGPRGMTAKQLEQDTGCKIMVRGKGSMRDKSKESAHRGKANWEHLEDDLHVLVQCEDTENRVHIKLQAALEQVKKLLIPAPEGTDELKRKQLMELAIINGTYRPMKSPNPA

Qk-1-STAR [5] = biological target: T2, Qk-1-STAR (mouse, UniProt Q9QYS9 7-214); experiment: EMSA; 10 mM Tris pH 8.0, 25 mM NaCl, 0.1 mM EDTA, 0.1 mg/mL tRNA, 5 ug/mL heparin, 0.01% IGEPAL CA630, room temperature, 3 h; EMSA gel 6% native, 0.5x TBE, 4 C; details: protein: recombinant, tags: MBP fusion, chain copies: 2
T2 sequence: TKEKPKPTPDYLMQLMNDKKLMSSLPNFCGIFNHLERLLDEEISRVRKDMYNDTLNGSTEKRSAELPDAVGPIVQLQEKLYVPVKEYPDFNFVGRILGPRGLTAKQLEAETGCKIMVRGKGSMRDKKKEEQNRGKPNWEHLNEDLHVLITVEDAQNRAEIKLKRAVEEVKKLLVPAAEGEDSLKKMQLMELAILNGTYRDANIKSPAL

Qk-1-STAR [6] = biological target: T2, Qk-1-STAR; experiment: fluorescence polarization; 10 mM Tris pH 8.0, 25 mM NaCl, 0.1 mM EDTA, 0.1 mg/mL tRNA, 5 ug/mL heparin, 0.01% IGEPAL CA630, room temperature, 3 h; EMSA gel 6% native, 0.5x TBE, 4 C; details: protein: recombinant; tags: MBP fusion; chain copies: 2; label: 5' 32P (EMSA), 5' fluorescein (FP)
GLD-1-STAR [7] = biological target: T1, GLD-1-STAR; experiment: fluorescence polarization; slightly tighter than WT TGE; 10 mM Tris pH 8.0, 25 mM NaCl, 0.1 mM EDTA, 0.1 mg/mL tRNA, 5 ug/mL heparin, 0.01% IGEPAL CA630, room temperature, 3 h; EMSA gel 6% native, 0.5x TBE, 4 C; details: protein: recombinant; tags: MBP fusion; chain copies: 2; label: 5' 32P (EMSA), 5' fluorescein (FP)
GLD-1-STAR [8] = biological target: T1, GLD-1-STAR; experiment: competition FP; probe TGE; 10 mM Tris pH 8.0, 25 mM NaCl, 0.1 mM EDTA, 0.1 mg/mL tRNA, 5 ug/mL heparin, 0.01% IGEPAL CA630, room temperature, 3 h; EMSA gel 6% native, 0.5x TBE, 4 C; details: protein: recombinant, tags: MBP fusion, chain copies: 2
Qk-1-STAR [9] = biological target: T2, Qk-1-STAR; experiment: EMSA; first shift (K1); 10 mM Tris pH 8.0, 25 mM NaCl, 0.1 mM EDTA, 0.1 mg/mL tRNA, 5 ug/mL heparin, 0.01% IGEPAL CA630, room temperature, 3 h; EMSA gel 6% native, 0.5x TBE, 4 C; details: protein: recombinant; tags: MBP fusion; chain copies: 2; label: 5' 32P
Qk-1-STAR [10] = biological target: T2, Qk-1-STAR; experiment: EMSA; second shift (K2); 10 mM Tris pH 8.0, 25 mM NaCl, 0.1 mM EDTA, 0.1 mg/mL tRNA, 5 ug/mL heparin, 0.01% IGEPAL CA630, room temperature, 3 h; EMSA gel 6% native, 0.5x TBE, 4 C; details: protein: recombinant; tags: MBP fusion; chain copies: 2; label: 5' 32P
Qk-1-STAR [11] = biological target: T2, Qk-1-STAR; experiment: competition FP; probe C21A TGE; 10 mM Tris pH 8.0, 25 mM NaCl, 0.1 mM EDTA, 0.1 mg/mL tRNA, 5 ug/mL heparin, 0.01% IGEPAL CA630, room temperature, 3 h; EMSA gel 6% native, 0.5x TBE, 4 C; details: protein: recombinant; tags: MBP fusion; chain copies: 2
GLD-1-STAR [12] = biological target: T1, GLD-1-STAR; experiment: competition FP; probe TGE; 10 mM Tris pH 8.0, 25 mM NaCl, 0.1 mM EDTA, 0.1 mg/mL tRNA, 5 ug/mL heparin, 0.01% IGEPAL CA630, room temperature, 3 h; EMSA gel 6% native, 0.5x TBE, 4 C; details: protein: recombinant; tags: MBP fusion; chain copies: 2
GLD-1-STAR [13] = biological target: T1, GLD-1-STAR; experiment: fluorescence polarization; 10 mM Tris pH 8.0, 25 mM NaCl, 0.1 mM EDTA, 0.1 mg/mL tRNA, 5 ug/mL heparin, 0.01% IGEPAL CA630, room temperature, 3 h; EMSA gel 6% native, 0.5x TBE, 4 C; details: protein: recombinant; tags: MBP fusion; chain copies: 2; label: 5' 32P (EMSA), 5' fluorescein (FP)
GLD-1-STAR [14] = biological target: T1, GLD-1-STAR; experiment: competition FP; slightly tighter than WT 12-mer; 10 mM Tris pH 8.0, 25 mM NaCl, 0.1 mM EDTA, 0.1 mg/mL tRNA, 5 ug/mL heparin, 0.01% IGEPAL CA630, room temperature, 3 h; EMSA gel 6% native, 0.5x TBE, 4 C; details: protein: recombinant; tags: MBP fusion; chain copies: 2
[15] = label: 5' 32P (EMSA), 5' fluorescein (FP)

UAUUUAAUUUCUUAUCUACUAAUAUCUA [C21A TGE 28-mer]
Kd (STAR-2-STAR (C. elegans) [1]): 1.2 nM | Kd (STAR-2-STAR (C. elegans) [2]): 5 nM

AUCUAAUCAUAU [C19A 12-mer (WT background)]
IC50 ratio, WT half-site vs mutant probe (IC50 WT half-site/C19A) (STAR-2-STAR (C. elegans) [3]): 4.2

poly-U, two hexamers, 4-nt spacing
Ki (GLD-1-STAR [4]): 12.2 nM

AUCUACUCAUAU [WT TGE half-site 12-mer (14-25; A21C in the A21 background)]
IC50 ratio (IC50 TGE/WT half-site) (STAR-2-STAR (C. elegans) [3]): 0.13

AUCUACUAAUAU [C21A (A21) half-site 12-mer]
IC50 ratio (IC50 TGE/C21A 12-mer) (STAR-2-STAR (C. elegans) [3]): 2.7 | IC50 ratio, WT half-site vs mutant probe (IC50 WT half-site/C21A) (STAR-2-STAR (C. elegans) [3]): 20

poly-U, two hexamers, 0-nt spacing
Ki (GLD-1-STAR [4]): 25.3 nM

UAUUUAAUUUCUUAUCUACUCAUAUCUA [WT TGE 28-mer]
Kd (STAR-2-STAR (C. elegans) [1]): 36 nM | Kd (STAR-2-STAR (C. elegans) [2]): 40 nM

poly-U, two hexamers, 2-nt spacing
Ki (GLD-1-STAR [4]): 22.7 nM

poly-U, two hexamers, 12-nt spacing
Ki (GLD-1-STAR [4]): 4.8 nM

poly-U, one hexamer at 5' end
Ki (GLD-1-STAR [4]): 110 nM

UAUUUAAUUUCUUAUCUACUAAUAUCUA (ssRNA) [C21A TGE 28-mer]
Kd (Qk-1-STAR [5]; [15]): 1.2 ± 0.2 nM | Kd (Qk-1-STAR [6]): 13 ± 2 nM | binding result (GLD-1-STAR [7]): binds

AUCUACUCAUAUCUAAUCGUCC (ssRNA) [TGE 46-67]
Ki (GLD-1-STAR [8]): 10.7 ± 2 nM

GACACACUAACCUCGGUGGAAACUCUUACAU (ssRNA) [MBP:2-3'm2]
Kd (Qk-1-STAR [9]): 69 nM | Kd (Qk-1-STAR [10]): 199 nM

GACACACUAACCUCGGUGGAAAAAUAACCAU (ssRNA) [MBP:2 (WT)]
Kd (Qk-1-STAR [9]): 24.5 ± 5 nM | Kd (Qk-1-STAR [10]): 269 ± 122 nM

GACACUCUCUCCUCGGUGGAAAAAUAACCAU (ssRNA) [MBP:2-5'm2]
Kd (Qk-1-STAR [5]; label: 5' 32P): 100 nM

AUCUACUCAUAU (ssRNA) [WT TGE half-site 12-mer (14-25; A21C in the A21 background)]
binding result (Qk-1-STAR [11]): no binding | binding signal (GLD-1-STAR [12]): ~9 fold weaker than TGE

AUCUAAUAAUAU (ssRNA) [C19A 12-mer (A21 background)]
binding result (Qk-1-STAR [11]): no binding

UUUUUUUUUUUUUUUUUUUUUUUUUUUU (ssRNA) [poly-U 28-mer]
binding result (GLD-1-STAR [8]): no binding

UAUUUAAUUUCUUAUCUA (ssRNA) [TGE 1-18]
binding signal (GLD-1-STAR [12]): 42 fold weaker than TGE

UAUUUAAUUUCUUAUCUACUCAUAUCUA (ssRNA) [WT TGE 28-mer]
Kd (Qk-1-STAR [5]; [15]): 49 ± 2 nM | Ki (GLD-1-STAR [8]; [15]): 11.1 ± 4 nM | Kd (Qk-1-STAR [6]): 63 ± 4 nM | Kd (GLD-1-STAR [13]): 32 ± 3 nM

AUCUAAUCGUCC (ssRNA) [TGE 56-67]
binding signal (GLD-1-STAR [12]): 32 fold weaker than TGE

UAUUCUCUUUCUUAUCUACUAAUAUCUA (ssRNA) [C21A TGE 5' mutant]
Kd (Qk-1-STAR [5]; label: 5' 32P): 7.1 ± 1 nM

GACACUCGGUGCUCGGUGGAAAAAUAACCAU (ssRNA) [MBP:2-5'm1]
Kd (Qk-1-STAR [5]; label: 5' 32P, predicted secondary structure (mfold)): 498 nM

AUCUACUCAUAUCUACUCAUAU (ssRNA) [TGE 14-35]
Ki (GLD-1-STAR [8]): 4.6 ± 0.8 nM

AUCUACUAAUAU (ssRNA) [C21A (A21) half-site 12-mer]
Ki (Qk-1-STAR [11]): 46 nM | binding result (GLD-1-STAR [14]): binds
